The chains are these.
B1: LINE1-full (parent)
chain: UACGUAGGUGGUUUUCCCCUGAUAGUGCUAAGGGGGCCUGGAAGUUUGGACUGGGCAGAGCUCAACACAGCGUGGCAAAGUGGCUGUGGCUAGACUGCCUCUCUGGAUUCCUCGUCACUCAGCAGGGCAUCUCUGAGAGAAAUGCC

The data set covers variants of B1. Briefly: self-cleavage, relative activity (ratio to wild type); higher = more cleavage; in vitro, sequencing; the parent is a self-cleaving ribozyme.
Take UACGUAGGUGGUUUUCCCCUGAUAGUGCUAAGGGGGCCUGGAAGUUUGGACCGGGCAGAGCUCAACACAGCGUGGCAAAGUGGCUGUGGCUAGACUGCCUCUCUGGAUUCCUCGUCACUCAGCAGGGCAUCUCUGAGAGAGAUGCC [U52C A141G]: the self-cleavage is 1.25.

With UACGUAGGUGGUUUUCCCCUGAUAGUGCUAAGGGGGCCUGGAAGUUUGGACCGGGCAGAGCUCAACACAGCGUGGCAAAGUGGCUGUGGCUAGACUGCCUCUCUGGAUUCCUCGUCACUCAGCAGGGCAUCUCUGAGAGAUAUGCC [U52C A141U], the self-cleavage worked out at 1.14.

As for UACGUAGGUGGUUUUCCCCUGAUAGUGCUAAGGGGGCCUGGAAGUUUGGACCGGGCAGAGCUCAACACAGCGUGGCAGAGUGGCUGUGGCUAGACUGCCUCUCUGGAUUCCUCGUCACUCAGCAGGGCAUCUCUGAGAGAAAUGCC [U52C A78G], the self-cleavage was 1.

Consider UACGUAGGUGGUUUUCCCCUGAUAGUGCUAAGGGGGCCUGGAAGUUUGGACCGGGCAGAGCUCAACACAGCGUGGCAAAGUGGCUGUGGCUAGACUGCCUCUCUGGAUUCCUCGUCACUCUGCAGGGCAUCUCUGAGAGAAAUGCC [U52C A121U], for which the self-cleavage stood at 1.5.

In the case of UACGUAGGUGGUUUUCCCCUGAUAGUGCUAAGGGGGCCUGGAAGUUUGGACCGGGCAGAGCUCAACACAGCGUGGCAAAGUGGCUGUGGCUAGACUGCCUCUCUGGAUUCCUCGUCACUCAGCAGGGCAUCUCUGUGAGAAAUGCC [U52C A136U], the self-cleavage stood at 0.81.

On to UACGUAGGUGGUUUUCCCCUGAUAGUGCUAAGGGGGCCUGGAAGUUUGGACCGGGCAGAGCUCAACACAGCGUGGCAAAGUGGCUGUGGCUAGACUGCCUCUCUGGAUUCCUCGUCACUCAGCAGGGCAUCUCUGGGAGAAAUGCC [U52C A136G], for which the self-cleavage turned out to be 2.9.

With UACGUAGGUGGUUUUCCCCUGAUAGUGCUAAGGGGGCCUGGAAGUUUGGACCGGGCAGAGCUCAACACAGCGUGGCAAAGUGGCUGUGGCUAGACUGCCUCUCUGGAUUCCUCGUCACUCAGCAGGGCUUCUCUGAGAGAAAUGCC [U52C A129U], the self-cleavage came to 1.61.

In the case of UACGUAGGUGGUUUUCCCCUGAUAGUGCUAAGGGGGCCUGGAAGUUUGGACCGGGCAGAGCUCAACGCAGCGUGGCAAAGUGGCUGUGGCUAGACUGCCUCUCUGGAUUCCUCGUCACUCAGCAGGGCAUCUCUGAGAGAAAUGCC [U52C A67G], the self-cleavage was 0.61.

In the case of UACGUAGGUGGUUUUCCCCUGAUAGUGCUAAGGGGGCCUGGAAGUUUGGACCGGGCAGAGCUCAACACAGCGUGGCAAAGUGGCUGUGGCUAGACUGCCUCUCUGGAUUCCUCGUCCCUCAGCAGGGCAUCUCUGAGAGAAAUGCC [U52C A117C], the self-cleavage is 0.42.

As to UACGUAGGUGGUUUUCCCCUGAUAGUGCUAAGGGGGCCUGGAAGUUUGGACCGGGCAGAGCUCAACACAGCGUGGCAAAGUGGCUGUGGCUAGACUGCCUCUCUGGAUUCCUCGUCGCUCAGCAGGGCAUCUCUGAGAGAAAUGCC [U52C A117G], the self-cleavage came out at 1.04.

In the case of UACGUAGGUGGUUUUCCCCUGAUAGUGCUAAGGGGGCCUGGAAGUUUGGACCGGGCAGAGCUCAACACAGCGUGGCAAAGUGGCUGUGGCUCGACUGCCUCUCUGGAUUCCUCGUCACUCAGCAGGGCAUCUCUGAGAGAAAUGCC [U52C A92C], the self-cleavage was 0.

Turning to UACGUAGGUGGUUUUCCCCUGAUAGUGCUAAGGGGGCCUGGAAGUUUGGACCGGGCAGAGCUCAACACAGCGUGGCAAAGUGGCUGUGGCUUGACUGCCUCUCUGGAUUCCUCGUCACUCAGCAGGGCAUCUCUGAGAGAAAUGCC [U52C A92U], the self-cleavage turned out to be 0.52.

Take UACGUAGGUGGUUUUCCCCUGAUAGUGCUAAGGGGGCCUGGAAGUUUGGACCGGGCAGAGCUCAACACAGCGUGGCAAAGUGGCUGUGGCUAGACUGCCUCUCUGGAUUCCUCGUCACUCAGCUGGGCAUCUCUGAGAGAAAUGCC [U52C A124U]: the self-cleavage stood at 1.48.

UACGUAGGUGGUUUUCCCCUGAUAGUGCUAAGGGGGCCUGGAAGUUUGGACCGGGCAGAGCUCAACACAGCGUGGCAAAGUGGCUGUGGCUAGACUGCCUCUCUGGAUUCCUCGUCACUCAGCGGGGCAUCUCUGAGAGAAAUGCC [U52C A124G]: the self-cleavage turned out to be 0.48.

Consider UACGUAGGUGGUUUUCCCCUGAUAGUGCUAAGGGGGCCUGGAAGUUUGGACCGGGCAGAGCUCAACACAGCGUGGCAAGGUGGCUGUGGCUAGACUGCCUCUCUGGAUUCCUCGUCACUCAGCAGGGCAUCUCUGAGAGAAAUGCC [U52C A79G], for which the self-cleavage worked out at 0.75.

UACGUAGGUGGUUUUCCCCUGAUAGUGCUAAGGGGGCCUGGAAGUUUGGACCGGGCAGAGCUCAACACAGCGUGGCAAAGUGGCUGUGGCUAGACUGCCUCUCUGGAUUCCUCGUCACUCAGCAGGGCAUCUCUGAGGGAAAUGCC [U52C A138G]: the self-cleavage was determined as 1.48.

Regarding UACGUAGGUGGUUUUCCCCUGAUAGUGCUAAGGGGGCCUGGAAGUUUGGACCGGGCAGAGCUCAACACAGCGUGGCAAAGUGGCUGUGGCUAGACUGCCUCUCUGGAUUCCUCGUCACUCAGCAGGGCAUCUCUGAGUGAAAUGCC [U52C A138U], the self-cleavage came out at 1.5.

As to UACGUAGGUGGUUUUCCCCUGAUAGUGCUAAGGGGGCCUGGAAGUUUGGACCGGGCAGAGCUCAACACAGCGUGGCAAAGUGGCUGUGGCUAGACUGCCUCUCUGGUUUCCUCGUCACUCAGCAGGGCAUCUCUGAGAGAAAUGCC [U52C A107U], the self-cleavage is 1.63.

For the variant UACGUAGGUGGUUUUCCCCUGAUAGUGCUAAGGGGGCCUGGAAGUUUGGACCGGGCAGAGCUCCACACAGCGUGGCAAAGUGGCUGUGGCUAGACUGCCUCUCUGGAUUCCUCGUCACUCAGCAGGGCAUCUCUGAGAGAAAUGCC [U52C A64C], the self-cleavage came to 0.51.

Regarding UACGUAGGUGGUUUUCCCCUGAUAGUGCUAAGGGGGCCUGGAAGUUUGGACCGGGCAGAGCUCAGCACAGCGUGGCAAAGUGGCUGUGGCUAGACUGCCUCUCUGGAUUCCUCGUCACUCAGCAGGGCAUCUCUGAGAGAAAUGCC [U52C A65G], the self-cleavage worked out at 0.07.

(Values after the RNAGym collection of RNA variant scans (doi:10.7554/elife.90254).)
